{"source": "the DeepSol protein solubility set", "experiment": "soluble on expression in E. coli; label from the status in PepcDB or PDB records"}
{"sequence": "MGSDKIHHHHHHMTGTTENDNTGEDEKPKDEECAAIEHKDKFNPTAYLNSFYKTASEDTAMQIVLFFLPGILYRLPQKVRSVLDLGAGPTVYLPISLRDRAENIYTSDYAPANRDTLINWIEDKSDFDWDNVCSWIANIEASMETGKQMQNKTRKLMRAVLDVNVHESPVVQSIVWKENEQVQVPDKFQVVSTVFCLEYSCETLEAYFRAVRSACSLIDEGGILIQGGVLDATTYNFGGKTFRCHRLKQAHIIESLKANGMATTAEQGYKFITHDDIFLLVSKKL", "values": [{"measurement": "soluble on expression in E. coli", "value": "not soluble"}]}
{"sequence": "MGSDKIHHHHHHMLIFQCHGDRCLSSNLQEHFTDLKKLVNGKSLLMGEKNVQKRLIRLGQILRVFLDKDRVSSIWLSRNFQITPRTIQRDLAALKESGFPIHEIQKGVYRLGKDLIKNLEVFDETELALVITLRNVVGQLGRPFQKAADGLFNSLYDAASSMPVYVRMDESIPLDSSLLNRIVKSIRLKKIAGFYYKSGKPHQVNMEPYRVVHFGGFWYLVGKDTGDSVIKRYALDRISDFKMARTPFRKIPENLDSAIQGSANIWFSTDQNLVVKISVDASSSGYFKRRKVFPTQEITEEREDGSLIVTFRVGRYEAIQDILKSWLPHITILEPAEFRDAFLADMKKWVQRQEQVGS", "values": [{"measurement": "soluble on expression in E. coli", "value": "not soluble"}]}
{"sequence": "MGSDKIHHHHHHVPSACRLSTCRFQDVCLSQIAAYWPARFTRTSEGVGKMAEMVTIKEADLIESVADALQYISYFHPMDYIRALGEAYKAEQGPAAKDAIAQILTNSRMCAEGHRPICQDTGIVNVFIEWGQDCRLESDLSLQDVVDEGVRRAYNNPDNKLRASVLADPAFTRRNTRDNTPCVLHVEMVKGNKVTVDVAAKGGGSENKSKFKMMNPSDSIVDWVIEMLPQMGAGWCPPGMLGIGIGGTAEHCVLLAKKALMEPIDMAQLKQRGPQTDIERLRIEIFDKVNALGIGAQGLGGLSTILDVKIMDAPCHAAGKPVAMIPNCAATRHAHFTLDGSGPTFLERPKLDEWPEVHWAPDSAARRVDLDTLTQEEVQSWKAGDRLLLNGKMLTGRDAAHKRIKDMLAKGEELPVDFKGRVIYYVGPVDPVRDEVVGPAGPTTATRMDSFSDTMLDLGLLASVGKAERGPAATQSIANHKSAYLMAVGGAAYLVARAIKEAKVVGFEDLGMEAIYEFTVEDMPVTVAVDSGGQNVHQLAPLVWKKKIAEEHLLPA", "values": [{"measurement": "soluble on expression in E. coli", "value": "not soluble"}]}
{"sequence": "MKYVLDTSAIISRNINLLDGDLLFPSSVIGEIRKGKLKYMLDALFPMIRIVDPDQYYVRSVEDAAHKTGDLMNLSGTDIEVIAVAMQYGATIVTDDYSIQNVASALKIAFMNANIKSISKQISWVYRCTGCKKIFHEPVKVCDICGHNVKRHYDKKRSAVKKILEHHHHHH", "values": [{"measurement": "soluble on expression in E. coli", "value": "not soluble"}]}
{"sequence": "MSLKTYKGYLIDLDGTMYNGTEKIEEACEFVRTLKDRGVPYLFVTNNSSRTPKQVADKLVSFDIPATEEQVFTTSMATAQHIAQQKKDASVYVIGEEGIRQAIEENGLTFGGENADFVVVGIDRSITYEKFAVGCLAIRNGARFISTNGDIAIPTERGLLPGNGSLTSVLTVSTGVQPVFIGKPESIIMEQAMRVLGTDVSETLMVGDNYATDIMAGINAGMDTLLVHTGVTKREHMTDDMEKPTHAIDSLTEWIPYIEGHHHHHH", "values": [{"measurement": "soluble on expression in E. coli", "value": "soluble"}]}
{"sequence": "MKFAVVVFPGSNCDVDMYHAIADELGEEVEYVWHDEDDLDRFDAILLPGGFSYGDYLRSGAIARFSKVMAAVKKAAEAGKPVLGVCNGFQILLEAGLLPGAMRRNQGLKFICRPVQLTVENHETIFTSAYEKGEVITIPIAHGEGNYYCDEQTLERLVENRQIVFRYHGENPNGSLADIAGIVNERGNVLGMMPHPERAVDALLGSADGLKLFRSIVNYWRETHVVTA", "values": [{"measurement": "soluble on expression in E. coli", "value": "not soluble"}]}
{"sequence": "MTLYIIANPHAGNKNASTIVGKIQELYHTEDISVFYTEQKDDEKKQVINILRSFKESDHLMIIGGDGTLSKVMTYLPQHIPCTYYPVGSGNDFARALKIPNLKETLTAIQTERLKEINCFIYDKGLILNSLDLGFAAYVVWKASNSKIKNILNRYRLGKITYIVIAIKSLLHSSKVQVLVEGETGQQIKLNDLYFFALANNTYFGGGITIWPKASALTAELDMVYAKGHTFLKRLSILLSLVFKRHTTSKSIKHQTFKAMTVYFPKNSLIEIDGEIVELDQISLKCQKRYLYM", "values": [{"measurement": "soluble on expression in E. coli", "value": "not soluble"}]}
{"sequence": "MSQNASVGIVMPQKIPFEMPLVLENGKTLPRFDLMIETYGELNAEKNNAVLICHALSGNHHVAGRHSAEDKYTGWWDNMVGPGKPIDTERFFVVGLNNLGGCDGSSGPLSINPETGREYGADFPVVTVKDWVKSQAALADYLGIEQWAAIVGGSLGGMQALQWTISYPERVRHALVIASAPKLSTQNIAFNDVARQAILTDPDFNEGHYRSHNTVPARGLRIARMMGHITYLAEDGLGKKFGRDLRSNGYQYGFGVEFEVESYLRYQGDKFVGRFDANTYLLMTKALDYFDPAADFGDSLTRALQNVKAKFFVASFSTDWRFAPERSHELVKALIAAQKSVQYIEVKSAHGHDAFLMEDEAYMRAVAAYMNNVYKECQQ", "values": [{"measurement": "soluble on expression in E. coli", "value": "not soluble"}]}
{"sequence": "MIGFLSDRQGFEKQYHDIDLSSFGIREGISEIIASTGFEHPNAAPIGIVMKGERPFVRLFKGSHTWENVLKEKCLASNVVYDPILFVRSTFSDLVPSEFEYVDAGEFKFPVLKEAIAWVVFECINLRNTDQSLVADLVPLNAGFNERNIKELPVPNRGFNAVLEATVHATRYQLTGEEKYLELIRHYESLASKCGGDAEKKAMKLIYEALGLLEHHHHHH", "values": [{"measurement": "soluble on expression in E. coli", "value": "not soluble"}]}
{"sequence": "MRITLVDHPLVQHKLAHLRDKRTGPKDFRELAEEVAMLMAYEAMRDLELEETTVETPIAPARVKVLSGKKLALVAILRAGLVMVEGILKLVPHARVGHIGLYRDPESLNPVQYYIKLPPDIAERRAFLLDPMLATGGSASLALSLLKERGATGVKLMAILAAPEGLERIAKDHPDTEVVVAAIDERLNDHGYIVPGLGDAGDRIYGTK", "values": [{"measurement": "soluble on expression in E. coli", "value": "soluble"}]}
{"sequence": "MSTPFGLDLGNNNSVLAVARNRGIDIVVNEVSNRSTPSVVGFGPKNRYLGETGKNKQTSNIKNTVANLKRIIGLDYHHPDFEQESKHFTSKLVELDDKKTGAEVRFAGEKHVFSATQLAAMFIDKVKDTVKQDTKANITDVCIAVPPWYTEEQRYNIADAARIAGLNPVRIVNDVTAAGVSYGIFKTDLPEGEEKPRIVAFVDIGHSSYTCSIMAFKKGQLKVLGTACDKHFGGRDFDLAITEHFADEFKTKYKIDIRENPKAYNRILTAAEKLKKVLSANTNAPFSVESVMNDVDVSSQLSREELEELVKPLLERVTEPVTKALAQAKLSAEEVDFVEIIGGTTRIPTLKQSISEAFGKPLSTTLNQDEAIAKGAAFICAIHS", "values": [{"measurement": "soluble on expression in E. coli", "value": "not soluble"}]}
{"sequence": "MSTATRPSSSATTSVILENPVSQSQPTERLVLRLNRKKKKVSWKDGTVDNEFMQKKSSKKCCIFHKQKPFDEDDSEEEDDNNHHCDHNHEHSESGEASSSNDSKAVDMGHHHHHHSH", "values": [{"measurement": "soluble on expression in E. coli", "value": "soluble"}]}
{"sequence": "MGFDSPRGRGGGGFRGGRGGGSGFTPRGGGGGFRGGDRGRSPGGFRGGDRGRSSSGFRGGDRGRSPGGFRGDREGGFSPRGRGGGFRGGDRGGFRGGDRGGSPWRGGDRGNFRGGDRGGSPWRGGDRGVANRGRGDFSGGSRGGNKFSPRGGGRGGFTPRGRGGNDFSPRGGRGNFQSRGGGSRVGFSDKRKQYDSDGDDDEEEEVPKKKLATGTPFAKQTKPVEDDSGEDEEDEEESDEEPQPPKKTAKSAIATAAEDSDDDEEDDDEEEEESDDDAPQVKKSVAVEEDEEDEEDEEEIEMDEEDEEEEEDEEETEPVAKTPAVKSSLKSVDSTKGKQVNLSKVATPTTVDKKAPATPHPAKTSKNAAGDVPKLNFDDDSDEEDEEDEEVEEEDEEEEEEEEDVPAKKAPVLKQSLSQIAQAIEEDSDDEDEDEEEEEDEEDEEEEEDTTNVPLIKSKADLLKQIAANRAAASAAQDSDEDEDEEDEEDVEEEDEEEEEEEDIPAVKPKVTEKQGGVKRKLDEPTVASKQVKSDGKSIISEEERRRQDRDSRSLFIKEIAKKAKDAEITGLVTGLDSFRRKKNSNFGWLVFNTVADCKKAHDVLSKSKIQGKALYVDFCLSESKAPKEHGVRPINPLQLFINALPGTCNNTDLKNIFRSSTDIKILHASGQPNSKKRAFITFGTVEDAQAAFAKSNGLKVNNHLVDVFYARHQETKVDVKPKKAATPAVQKKIVPKVAADSSGDDSEEVASSDEGIQEVEEEQPKQKKLVKKVEPKTIPRVQQKKPQFKKTGFKGKK", "values": [{"measurement": "soluble on expression in E. coli", "value": "not soluble"}]}
{"sequence": "MLQCYNCPNPTADCKTAVNCSSDFDACLITKAGLQVYNKCWKFEHCNFNDVTTRLRENELTYYCCKKDLCNFNEQLENC", "values": [{"measurement": "soluble on expression in E. coli", "value": "soluble"}]}
{"sequence": "HVHVVSNEILGLTNLLKDKKIKSKVIQFEVQFPTEEVAAHLSIDQKTPVYYVVRLRIVEGEPYVLEKTYMPTHLIPGINDDVLHDSIYNHITNVLQLKIAGTHRKIRACKSDHIDQQHLGCKQDDPILEVEHVGFLDTGIPFEYSFSRHRHDKFVVTSVNIRR", "values": [{"measurement": "soluble on expression in E. coli", "value": "not soluble"}]}
{"sequence": "MTFKSATGSGQQGGSSGTSAGNPDSLKQDKISKSGDSLSVVDTGQGDDTHYANLPPSITPTSDPNALSFTNKNNAQRVQLFLRGLLDSIPVLVNKSGQDDLEHHHHHH", "values": [{"measurement": "soluble on expression in E. coli", "value": "not soluble"}]}
{"sequence": "MKKIEIFDPAMCCPTGLCGTNINPELMRIAVVIESLKKQGIIVTRHNLRDEPQVYVSNKTVNDFLQKHGADALPITLVDGEIAVSQTYPTTKQMSEWTGVNLD", "values": [{"measurement": "soluble on expression in E. coli", "value": "soluble"}]}
{"sequence": "MGSDKIHHHHHHMDSNIFISTYHIRYGQEDSSMNKLKILFVLFTNIKTGAGTEKSLYYYLKYADISKFDITVLQTNLMPGGQRLSDSDLETIKNKAKFIEIKDYRGLLGFIRNKYLSYLLNLFILPMLLKICKYTVYHKKLKQLKDSNVIYLFNNDYSNLFSHKSVVIGSNHCAFDNLDSFSQKLIARLLSLRIILPSITAFHLFPHNVSFKEYFGNKPLILLSNGVDTDLYYPSHSQNLKTKILFVGRLEEVKGILMAIKVYNNIKKMFPVEFVIVGSGSLESEVDKLCASDTNVKHFKHVAENDLANIYRSCDIFLYPTQGDSYALVVLEALSSGLKVVTTVNIYRVYNDFIRFNVIKFADFDEKSLTQALLDIKNTVINKNEIHNYIEKNYSWKKVSENLFNLMYNLAVKN", "values": [{"measurement": "soluble on expression in E. coli", "value": "not soluble"}]}
{"sequence": "GLQTYEYGLKPQDGFEVITHFEFTSQHLDILNRLFTPLIGVESIGLYHFMSQFIDESQQLGLTHYIFMNELKINLLDFREQMDNLEAIGLIKTFVRHEEKYSHFVYELIQPPTAYQFFNDPMLSVFLFSEVDKKRYQALKSYFEKDEKDLSKYQQTTRKFTEVFNVPKKVNVSDQINLKQIKHYDGIDLSNETFDFEMLRQMLNHHFISNEIIDKEAKNLIIQLATLYGITEDGMKNVILSSITSAQQLSFEEMRKKARTYYLIEHDNQLPKLEHQTNKINDEKKDRQAEDTTNDWLQLLDETSPIDMLASWSDSEPTQSQKSMIEELINREKMNFGVINILLQFVMLKEDMKLPKSYIFEIASNWKKIGISNAKQAYEYALQVNQPKNYETHSNDKRQNNRGRQNQFLSKEKTPKWLQNRDDQEENKEINDDTLEEDRQAFLEKLNQKWKEEDN", "values": [{"measurement": "soluble on expression in E. coli", "value": "not soluble"}]}
{"sequence": "MGSDKIHHHHHHMNEVLDEYRRLLSEVDHWFSRCIARSGEHIRCAEGCSECCRGLFDITLLDAALLKEGFDRLDAFTREQVLVKCRKRLAGLLRLWPEFAHPYMLNYRPEEEWELLMPDDDETPCPLLGADGRCLVYGFRPMTCRLHGLPLVDLTGEVLHDEWCTLNYVGGDPLADAGLRGEFTKIFREEVRLFRHFSERLLGQEFRELDTFIPTALLIDFTRFDWHRFAAGFSVTP", "values": [{"measurement": "soluble on expression in E. coli", "value": "not soluble"}]}
{"sequence": "MSEVVTDRLRMALEAMAQKDDDAAWEVIDGDDEINQLYLDLEDDCIDLLALQQPVAGDLRLIASSFKIITDLERIGDLAANLAEYTLDADRDMFPEVDVQAIGDRTIEMVTDAMAAYASADVEACYAIAERDDDIDERCRSASQTVIRDLIETEIDAATDDAEIEALMQDVSRLLLTVRDLERVGDHAVNISARTVYMVDNDDELIY", "values": [{"measurement": "soluble on expression in E. coli", "value": "soluble"}]}
